Source: PMC4250934

Key:
Assay in all cases: AUC
[1] = target: SODA_(BSn5), C-terminal SODA domain of SOD_(BSn5) (Bacillus subtilis BSn5)
[2] = target: SODA_(NG2215), NTD-deleted form of SOD_(NG2215) (SODA functional domain) (Geobacillus thermodenitrificans NG80-2)
[3] = target: SOD_(BSn5), Fe/Mn superoxide dismutase from Bacillus subtilis BSn5 (Bacillus subtilis BSn5)
[4] = target: SOD_(NG2215), Fe/Mn superoxide dismutase (cambialistic SOD) from Geobacillus thermodenitrificans NG80-2 (Geobacillus thermodenitrificans NG80-2)

Substance: SODA_(BSn5), C-terminal SODA domain of SOD_(BSn5) (domain or fragment)
- stoichiometry N [1]: 2

Substance: SODA_(NG2215), NTD-deleted form of SOD_(NG2215) (SODA functional domain) (domain or fragment)
- stoichiometry N [2]: 4

Substance: SOD_(BSn5), Fe/Mn superoxide dismutase from Bacillus subtilis BSn5 (enzyme)
- stoichiometry N [3]: 2

Substance: SOD_(NG2215), Fe/Mn superoxide dismutase (cambialistic SOD) from Geobacillus thermodenitrificans NG80-2 (enzyme)
- stoichiometry N [4]: 4
